T1: CD22 (antigen in the Biacore assay) (human, UniProt P20273 20-687, limits assumed)
T1 sequence: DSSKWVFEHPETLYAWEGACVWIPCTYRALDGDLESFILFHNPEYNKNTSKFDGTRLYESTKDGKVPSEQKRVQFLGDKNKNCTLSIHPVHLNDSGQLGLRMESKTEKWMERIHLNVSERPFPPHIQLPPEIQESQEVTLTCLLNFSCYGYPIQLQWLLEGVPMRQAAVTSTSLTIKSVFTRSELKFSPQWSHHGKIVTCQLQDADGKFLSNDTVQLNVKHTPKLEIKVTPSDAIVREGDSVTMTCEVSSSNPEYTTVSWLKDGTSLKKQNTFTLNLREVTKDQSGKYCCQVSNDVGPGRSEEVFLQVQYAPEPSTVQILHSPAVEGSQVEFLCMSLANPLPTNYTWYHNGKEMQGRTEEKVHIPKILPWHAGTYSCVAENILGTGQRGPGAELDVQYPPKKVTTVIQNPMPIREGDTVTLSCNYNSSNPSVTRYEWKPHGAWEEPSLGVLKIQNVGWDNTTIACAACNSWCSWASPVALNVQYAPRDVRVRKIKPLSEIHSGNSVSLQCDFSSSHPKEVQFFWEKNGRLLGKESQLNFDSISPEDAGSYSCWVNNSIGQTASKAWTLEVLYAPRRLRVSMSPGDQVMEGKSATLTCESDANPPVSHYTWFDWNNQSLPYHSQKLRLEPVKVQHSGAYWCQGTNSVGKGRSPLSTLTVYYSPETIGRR

T2: CD22 (UniProtKB-P20273) on CD22(+) cells (human, UniProt P20273 20-847)
T2 construct: Endogenous CD22 on the NALM6 and Raji cell lines; also called SIGLEC-2; BL-CAM
T2 sequence: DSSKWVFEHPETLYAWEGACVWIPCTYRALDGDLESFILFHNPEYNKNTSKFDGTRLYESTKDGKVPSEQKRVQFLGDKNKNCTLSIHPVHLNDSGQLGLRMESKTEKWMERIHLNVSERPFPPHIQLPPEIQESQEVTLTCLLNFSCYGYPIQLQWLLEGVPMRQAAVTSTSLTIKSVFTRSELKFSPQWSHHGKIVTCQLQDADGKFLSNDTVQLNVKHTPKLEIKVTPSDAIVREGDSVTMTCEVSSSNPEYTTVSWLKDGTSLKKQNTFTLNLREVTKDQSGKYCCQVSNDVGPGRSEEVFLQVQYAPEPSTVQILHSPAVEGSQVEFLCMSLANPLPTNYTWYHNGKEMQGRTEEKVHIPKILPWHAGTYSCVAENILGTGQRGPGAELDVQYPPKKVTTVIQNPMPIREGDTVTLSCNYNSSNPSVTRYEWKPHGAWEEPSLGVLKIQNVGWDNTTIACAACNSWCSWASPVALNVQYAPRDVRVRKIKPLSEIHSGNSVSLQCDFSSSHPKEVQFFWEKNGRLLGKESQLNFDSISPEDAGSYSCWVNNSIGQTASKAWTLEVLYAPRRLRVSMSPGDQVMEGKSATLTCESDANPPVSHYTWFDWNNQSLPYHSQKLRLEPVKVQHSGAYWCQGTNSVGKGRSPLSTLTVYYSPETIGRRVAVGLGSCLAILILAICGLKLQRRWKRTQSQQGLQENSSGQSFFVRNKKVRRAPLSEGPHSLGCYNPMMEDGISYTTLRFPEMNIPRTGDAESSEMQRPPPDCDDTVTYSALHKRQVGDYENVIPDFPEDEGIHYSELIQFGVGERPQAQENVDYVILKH


Experiments:
[1] = molecular target: T1, CD22 (antigen in the Biacore assay); assay: SPR (Biacore) at 37° C
[2] = molecular target: T2, CD22 (UniProtKB-P20273) on CD22(+) cells; assay: flow cytometry on CD22(+) NALM6 cells
[3] = molecular target: T2, CD22 (UniProtKB-P20273) on CD22(+) cells; assay: flow cytometry (FACS) on CD22(+) NALM6 cells, detected with an anti-human Fc second antibody
Description: The binding of bispecific CD22-CD3 IgG-scFv antibodies to NALM6 CD22(+) leukemic cells was assayed using FACS. CD22(−) MOLM13 AML cells were used as a negative control for CD22 expression, and anti-CD3 humanized OKT3 (huOKT3) was used as a negative antibody control. […] In contrast, neither the chimeric LL2 IgG+huOKT3 scFv nor the huOKT3 antibody stained the CD22(−) MOLM13 AML cells.

| Kd [1] [pM] | koff [1] [s⁻¹] | kon [1] [M⁻¹ s⁻¹] | MFI (FACS NALM6) [2] | binding result [3] | Binder |
| --- | --- | --- | --- | --- | --- |
| 1.37 | 2.31e-07 | 169000 | 33.4 | – | chimeric LL2 antibody (antibody, V domains shown, Murine LL2 variable domains with human constant domains (IgG1)) VH: QVQLQESGAELSKPGASVKMSCKASGYTFTSYWLHWIKQRPGQGLEWIGYINPRNDYTEYNQNFKDKATLTADKSSSTAYMQLSSLTSEDSAVYYCARRDITTFYWGQGTTLTVSS VL: DIQLTQSPSSLAVSAGENVTMSCKSSQSVLYSANHKNYLAWYQQKPGQSPKLLIYWASTRESGVPDRFTGSGSGTDFTLTISRVQVEDLAIYYCHQYLSSWTFGGGTKLEIK |
| 24.8 | 3.3e-06 | 133000 | 34.5 | – | humanized LL2 L1 + H9 (antibody, V domains shown, Human IgG1 frameworks; also called H9L1) VH: QVQLVQSGAEVKKPGASVKVSCKASGYTFTSYWLHWVRQAPGQRLEWIGYINPRNDYTEYNQNFKDRVTITADTSASTAYMELSSLRSEDTAVYYCARRDITTFYWGQGTTLTVSS VL: DIVLTQSPDSLAVSAGERVTMNCKSSQSVLYSANHKNYLAWYQQKPGQPPKLLIYWASTRESGVPDRFSGSGSGTDFTLTISSVQAEDVAIYYCHQYLSSWTFGGGTKLEIK |
| 2.05 | 5.88e-07 | 287000 | 39.2 | – | humanized LL2 L1 + H12 (antibody, V domains shown, Human IgG1 frameworks; also called H12L1; VL1-VH12) VH: QVQLQQSGAEVKKPGASVKMSCKASGYTFTSYWLHWVRQAPGQRLEWMGYINPRNDYTEYNQNFKDRVTITADTSASTAYMELSSLRSEDTAVYYCARRDITTFYWGQGTTLTVSS VL: DIVLTQSPDSLAVSAGERVTMNCKSSQSVLYSANHKNYLAWYQQKPGQPPKLLIYWASTRESGVPDRFSGSGSGTDFTLTISSVQAEDVAIYYCHQYLSSWTFGGGTKLEIK |
| 0.00191 | – | 154000 | 33.6 | – | humanized LL2 L1 + H4 (antibody, V domains shown, Human IgG1 frameworks; also called H4L1) VH: QVQLQQSGAEVKKPGASVKMSCKASGYTFTSYWLHWIRQAPGQRLEWMGYINPRNDYTEYNQKFQGRATITADKSASTAYMELSSLRSEDTAVYYCARRDITTFYWGQGTTLTVSS VL: DIVLTQSPDSLAVSAGERVTMNCKSSQSVLYSANHKNYLAWYQQKPGQPPKLLIYWASTRESGVPDRFSGSGSGTDFTLTISSVQAEDVAIYYCHQYLSSWTFGGGTKLEIK |
| 0.17 | 2.91e-08 | 171000 | 33.5 | – | humanized LL2 L1 + H6 (antibody, V domains shown, Human IgG1 frameworks; also called H6L1) VH: QVQLQQSGAEVKKPGASVKVSCKASGYTFTSYWLHWIRQAPGQRLEWMGYINPRNDYTEYNQNFKDRVTITRDTSASTAYMELSSLRSEDTAVYYCARRDITTFYWGQGTTLTVSS VL: DIVLTQSPDSLAVSAGERVTMNCKSSQSVLYSANHKNYLAWYQQKPGQPPKLLIYWASTRESGVPDRFSGSGSGTDFTLTISSVQAEDVAIYYCHQYLSSWTFGGGTKLEIK |
| 1720 | 0.00478 | 2.77e+06 | 32.8 | – | humanized LL2 L1 + H2 (antibody, V domains shown, Human IgG1 frameworks; also called H2L1) VH: QVQLQESGAEVKKPGASVKMSCKASGYTFTSYWLHWIRQAPGQRLEWIGYINPRNDYTKYSQKFQGRVTLTRDKSASTAYMELSSLRSEDTAVYYCARRDITTFYWGQGTTLTVSS VL: DIVLTQSPDSLAVSAGERVTMNCKSSQSVLYSANHKNYLAWYQQKPGQPPKLLIYWASTRESGVPDRFSGSGSGTDFTLTISSVQAEDVAIYYCHQYLSSWTFGGGTKLEIK |
| 0.0435 | 7.67e-09 | 176000 | 32.7 | – | humanized LL2 L1 + H10 (antibody, V domains shown, Human IgG1 frameworks; also called H10L1) VH: QVQLVQSGAEVKKPGASVKVSCKASGYTFTSYWLHWVRQAPGQRLEWMGYINPRNDYTEYNQNFKDRVTLTADKSASTAYMELSSLRSEDTAVYYCARRDITTFYWGQGTTLTVSS VL: DIVLTQSPDSLAVSAGERVTMNCKSSQSVLYSANHKNYLAWYQQKPGQPPKLLIYWASTRESGVPDRFSGSGSGTDFTLTISSVQAEDVAIYYCHQYLSSWTFGGGTKLEIK |
| 403 | 0.00219 | 5.43e+06 | 40 | – | humanized LL2 L2 + H1 (antibody, V domains shown, Human IgG1 frameworks; also called H1L2) VH: QVQLVESGAEVKKPGASVKMSCKASGYTFTSYWLHWIRQAPGQRLEWIGYINPRNDYTKYSQKFQGRATITADKSASTAYMELSSLRSEDTAVYYCARRDITTFYWGQGTTLTVSS VL: DIVLTQSPDSLAVSLGERVTMNCKSSQSVLYSANHKNYLAWYQQKPGQSPKLLIYWASTRESGVPDRFSGSGSGTDFTLTISSVQAEDVAIYYCHQYLSSWTFGGGTKLEIK |
| 41 | 4.19e-06 | 102000 | 35.2 | – | humanized LL2 L1 + H5 (antibody, V domains shown, Human IgG1 frameworks; also called H5L1) VH: QVQLQESGAEVKKPGASVKVSCKASGYTFTSYWLHWVRQAPGQRLEWIGYINPRNDYTEYSQKFQGRATLTADTSASTAYMELSSLRSEDTAVYYCARRDITTFYWGQGTTLTVSS VL: DIVLTQSPDSLAVSAGERVTMNCKSSQSVLYSANHKNYLAWYQQKPGQPPKLLIYWASTRESGVPDRFSGSGSGTDFTLTISSVQAEDVAIYYCHQYLSSWTFGGGTKLEIK |
| 34.4 | 3.09e-06 | 89800 | 31.9 | – | humanized LL2 L1 + H3 (antibody, V domains shown, Human IgG1 frameworks; also called H3L1) VH: QVQLQQSGAEVKKPGASVKVSCKASGYTFTSYWLHWIRQAPGQRLEWIGYINPRNDYTEYSQKFQGRATLTADTSASTAYMELSSLRSEDTAVYYCARRDITTFYWGQGTTLTVSS VL: DIVLTQSPDSLAVSAGERVTMNCKSSQSVLYSANHKNYLAWYQQKPGQPPKLLIYWASTRESGVPDRFSGSGSGTDFTLTISSVQAEDVAIYYCHQYLSSWTFGGGTKLEIK |
| 0.0104 | 1.71e-09 | 164000 | 33.6 | – | humanized LL2 L1 + H11 (antibody, V domains shown, Human IgG1 frameworks; also called H11L1; VL1-VH11) VH: QVQLVQSGAEVKKPGASVKMSCKASGYTFTSYWLHWVRQAPGQRLEWMGYINPRNDYTEYNQNFKDRATITADTSASTAYMELSSLRSEDTAVYYCARRDITTFYWGQGTTLTVSS VL: DIVLTQSPDSLAVSAGERVTMNCKSSQSVLYSANHKNYLAWYQQKPGQPPKLLIYWASTRESGVPDRFSGSGSGTDFTLTISSVQAEDVAIYYCHQYLSSWTFGGGTKLEIK |
| – | – | – | – | binds | chimeric anti-CD22-CD3 BsAb (chLL2 x CD3 BsAb) (bispecific antibody, IgG-scFv format: huOKT3 scFv fused to the C-terminus of the LL2 IgG1 light chain; also called chimeric LL2 IgG+huOKT3 scFv) heavy: not shown light: DIQLTQSPSSLAVSAGENVTMSCKSSQSVLYSANHKNYLAWYQQKPGQSPKLLIYWASTRESGVPDRFTGSGSGTDFTLTISRVQVEDLAIYYCHQYLSSWTFGGGTKLEIKRTVAAPSVFIFPPSDEQLKSGTASVVCLLNNFYPREAKVQWKVDNALQSGNSQESVTEQDSKDSTYSLSSTLTLSKADYEKHKVYACEVTHQGLSSPVTKSFNRGECTSGGGGSGGGGSGGGGSQVQLVQSGGGVVQPGRSLRLSCKASGYTFTRYTMHWVRQAPGKCLEWIGYINPSRGYTNYNQKFKDRFTISRDNSKNTAFLQMDSLRPEDTGVYFCARYYDDHYSLDYWGQGTPVTVSSGGGGSGGGGSGGGGSGGGGSGGGGSGGGGSDIQMTQSPSSLSASVGDRVTITCSASSSVSYMNWYQQTPGKAPKRWIYDTSKLASGVPSRFSGSGSGTDYTFTISSLQPEDIATYYCQQWSSNPFTFGCGTKLQITR |

Reference: patent publication US20220177581A1 (Memorial Sloan Kettering, published 2022)
